Here are results for five molecules from patent US20030027314A1.

Assay [1] addresses c-Myc bHLH protein (murine) (UniProt P01108). Put plainly: heterodimer with c-Myc, study of FIG. 9 (method not given).
The target of assay [2] is T1, CREB (unmodified).
T1 sequence (chain, from a related filing, looked up): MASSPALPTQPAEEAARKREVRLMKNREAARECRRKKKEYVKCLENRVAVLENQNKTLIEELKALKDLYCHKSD
Kind of assay: thermal melting curve, mixture (FIG. 3).

In assay [3] the target is C/EBP bZIP domain (chimeric GCN4-C/EBP protein) (C/EBP part: 'present in rat liver'; GCN4 part: yeast). Put plainly: CD thermal melt, equimolar mixture, 150 mM KCl.
For assay [4], the target named is c-Jun (unmodified). Kind of assay: from thermal melts, Kd at 37 °C (FIG. 4).

For orientation: Kd means the free concentration of one partner at which half of the binding sites on the other are occupied at equilibrium, for simple one-to-one binding. Usually Tm stands for the temperature at the midpoint of the melting transition.

B1: AcidMax (Max with a polyglutamic acid extension on the dimerization domain) (designed binder)
chain: MASMTGGQQMGRDPDEEEDDEEELEELEDSFHSLRDSVPSLQGEKASRAQILDKATEYIQYMRRKNHTHQQDIDDLKRQNALLEQQVRALEKARSSAQLQT
B1: the Kd in assay [1] is 0.002 nM.

B2: New4hepCREB (CREB with the new 4heptad acidic extension, asparagine changed to leucine) (designed binder)
chain: MDYKDDDDKHMASMTGGQQMGRDPDLEQRAEELARENEELEKEAEELEQELAELENRVAVLENQNKTLIEELKALKDLYCHKSD
Turning to B2, in assay [2], the melting temperature (Tm) was 69.5 °C.

B3: 0heptadMax (dimerization domain of Max without an acidic extension) (protein)
chain: ASMTGGQQMGRDPDLEELEDSFHSLRDSVPSLQGEKASRAQILDKATEYIQYMRRKNHTHQQDIDDLKRQNALLEQQVRALEKARSSAQLQT
Take B3: the Kd in assay [1] is 0.6 nM.

B4: 3heptad-C/EBP (three heptad acidic extension appended onto the C/EBP leucine zipper) (designed binder, not shown: a dimerising Fc or GST)
chain: ASMTGGQQMGRDPGGGLARENEELEKEAEELEQENAELEQKVLELTSDNDRLRKRVEQLSRELDTLRGIFRQLPESSLVKAMGNCA
As to B4, in assay [3], the Kd came to 0.6 nM, the Tm came to 61 °C and the delta G at 25 °C was -12.6 kcal/mol.

B5: c-Jun (unmodified) (protein, from a related filing)
chain: PLSPIDMESQERIKAERKRMRNRIAASKCRKRKLERIARLEEKVKTLKAQNSELASTANMLREQVAQLKQKVMNHVNSGCQLMLTQQLQTF
For B5, in assay [4], the Kd is 20000 nM.
